Tests used:
[1] = PAA generation with different perhydrolases and substrates, HPLC Karst assay; type: biochemical
Protocol: HC1121 is a CE-7 class carbohydrate esterase from Thermotoga maritima (C2775-HC263; SEQ ID NO: 288), and HC1169 is an aryl esterase from M. smegmatis (ArE-HC263; SEQ ID NO: 323). Both enzymes were tested for their perhydrolytic activity with substrates triacetin or propylene glycol diacetate (PGDA, Aldrich 528072) and hydrogen peroxide between pH 5 and pH 7.2. Enzyme free reactions for some reaction conditions were run to determine the non-enzymatic generation of peracetic acid as well. At the end of reaction, the reaction was quenched by acidification 10 or 25 fold with 100 mM H3PO4. The quenched samples were filtered using a NANOSEP® MF centrifugal device (30K Molecular Weight Cutoff (MWCO), Pall Life Sciences, Ann Arbor, Mich., P/N OD030C35) by centrifugation for 6 min at 12,000 rpm. The filtrates were assayed by HPLC Karst assay in duplicates to determine the amount of peracetic acid (PAA) generated at those reaction conditions.

[2] = Two-step treatment of hair tresses, tress tensile strength; conditions: 1500 μg/mL (E/H 6), deposition 5 min, 0.5 M H2O2, 1 M TA, 2 hr/cycle
Protocol: Medium brown hair was used in these examples. Stock hair swatches were custom made by International Hair Importers (Glendale, N.Y.). Each swatch had 1500 mg of 50% reversed hair, soft glued in the middle with glue thickness of 1 mm and width of 2 cm.
Test-hair-sample consisted of a hair bundle of approximately 50 mg hair of 4 cm length, held together by a 1 mm thick, 2 mm wide and 5 mm long glue strip. A sheet of BYTAC® (TYPE VF-81, Saint-Gobain Performance Plastics, Wayne, N.J.) was attached to a polystyrene cover-plate, providing a TEFLON®-coated test-surface for mounting and treatment of hair. A strip of double-sided scotch tape was applied on the BYTAC® surface, closer to the top edge of the test plate. The glued side of the test-hair-sample was pressed down on the exposed side of the tape, making sure that the unglued hair strands are completely clear of the tape. The glued parts of the tress and exposed double-sided tape surface were covered with a strip of clear single-sided tape. Although the method is described for a single test-hair-tress, 4 tresses were used for each test condition and were placed side-by-side during the entire treatment.
The test tress was wetted by tap water and the excess water was absorbed with a paper towel. The calculated volume of the enzyme formulation was applied and was worked in gently and evenly into hair strands with gloved fingers for ˜30 seconds and let the formulation soak in for the specified deposition time. The tress was then rinsed with tap water agitated through a peristaltic pump for 20 seconds, to completely remove the surfactant.
Excess water was removed from the wetted tress from the previous step by absorption on a paper towel. The requisite volumes of the substrates (H2O2 and triacetin (TA)) were applied onto the test-tress. The mixture was rubbed into the hair strand firmly and evenly, with gloved finger for ˜1 min. The tress was left semi-covered for the specified treatment time.
Test-hair was washed with a diluted surfactant solution by rubbing the surfactant into hair with enough vigor to foam, for one minute to remove all traced of oils and residues arising during tress preparation or from previous cycles. Hair was rinsed thoroughly with tap water, agitated through a peristaltic pump for 35 seconds, while gently opening tresses with gloved fingers to ascertain that all adherents (surfactant or moisturizer) are dislodged. Excess moisture was absorbed by pressing down the paper towel over the tress. This would mark the end of one cycle. Treatment cycles were repeated starting from the enzyme-deposition step until the desired number of cycles was reached.
Two samples from each experiment were subjected to Tensile assay as described in Example 23, to determine the extent of hair-weakening.
The following experiments followed the general method of treatment disclosed in Example 25. Solutions were made in 5% TWEEN®-20 surfactant in 50 mM citrate buffer at pH 6. […] H2O2 and triacetin, formulations were made according to Example 24, in 20% LUBRIDERM® lotion in 50 mM citrate buffer at pH 6. After application of the reagents, the treatment was allowed to continue for 24 hr, as in daily application. TWEEN®-20 (5% in 50 mM citrate buffer at pH 6) was used for the final surfactant wash. The treatment was repeated for 15 additional cycles, 16 days in all.
The following experiments followed the general method of treatment disclosed in Example 26, except that after application of the reagents, the treatment was allowed to continue for shorter times per cycle rather than 24 hours per cycle.
Enzyme solutions were made in 0.5% or 5% TWEEN®-20 surfactant in 50 mM citrate buffer at pH 6. […] H2O2 and triacetin, formulations were made according to Example 24, in 20% LUBRIDERM® lotion (Johnson & Johnson, New Brunswick, N.J.) in 50 mM citrate buffer at pH 6. After application of 400 μL each of the reagents, the treatment was allowed to continue for 20-40 min. […]

B1: SEQ ID NO: 323: S54V variant of the aryl esterase from Mycobacterium smegmatis fused to hair binding domain HC263 via a flexible linker (protein)
chain: MAKRILCFGDSLTWGWVPVEDGAPTERFAPDVRWTGVLAQQLGADFEVIEEGLVARTTNIDDPTDPRLNGASYLPSCLATHLPLDLVIIMLGTNDTKAYFRRTPLDIALGMSVLVTQVLTSAGGVGTTYPAPKVLVVSPPPLAPMPHPWFQLIFEGGEQKTTELARVYSALASFMKVPFFDAGSVISTDGVDGIHFTEANNRDLGVALAEQVRSLLGPGSGGAGSPGSAGGPGSPSAQSQLPDKHSGLHERAPQRYGPEPEPEPEPIPEPPKEAPVVIEKPKPKPKPKPKPPAHDHKNQKETHQRHAAGSGGGGSPHHHHHH
Question: What does the source list for B1?
Answer: PAA ([1]; 10 μg/mL enzyme, 250 mM PGDA, 100 mM H2O2, pH 5, 100 mM citrate buffer, 30 min): 4158 ppm; PAA ([1]; 10 μg/mL enzyme, 250 mM PGDA, 100 mM H2O2, pH 5.6, 100 mM citrate buffer, 30 min): 4482 ppm; PAA ([1]; 10 μg/mL enzyme, 250 mM PGDA, 100 mM H2O2, pH 6, 100 mM citrate buffer, 30 min): 4647 ppm; PAA ([1]; 10 μg/mL enzyme, 250 mM PGDA, 100 mM H2O2, pH 6.6, 100 mM phosphate buffer, 30 min): 4608 ppm; PAA ([1]; 10 μg/mL enzyme, 250 mM PGDA, 100 mM H2O2, pH 7.2, 100 mM phosphate buffer, 30 min): 4450 ppm; PAA ([1]; 10 μg/mL enzyme, 250 mM triacetin, 100 mM H2O2, 20% LUBRIDERM® in pH 7.2, 100 mM phosphate buffer, 60 min): 3433 ppm; PAA ([1]; 20 μg/mL enzyme, 250 mM PGDA, 100 mM H2O2, pH 5, 100 mM citrate buffer, 30 min): 4140 ppm; PAA ([1]; 20 μg/mL enzyme, 250 mM PGDA, 100 mM H2O2, pH 5.6, 100 mM citrate buffer, 30 min): 4403 ppm; PAA ([1]; 20 μg/mL enzyme, 250 mM PGDA, 100 mM H2O2, pH 6, 100 mM citrate buffer, 30 min): 4609 ppm; PAA ([1]; 20 μg/mL enzyme, 250 mM PGDA, 100 mM H2O2, pH 6.6, 100 mM phosphate buffer, 30 min): 4526 ppm; PAA ([1]; 20 μg/mL enzyme, 250 mM PGDA, 100 mM H2O2, pH 7.2, 100 mM phosphate buffer, 30 min): 4726 ppm; PAA ([1]; 20 μg/mL enzyme, 250 mM triacetin, 100 mM H2O2, pH 5, 100 mM citrate buffer, 30 min): 3680 ppm; PAA ([1]; 20 μg/mL enzyme, 250 mM triacetin, 100 mM H2O2, pH 5.6, 100 mM citrate buffer, 30 min): 4429 ppm; PAA ([1]; 20 μg/mL enzyme, 250 mM triacetin, 100 mM H2O2, pH 6, 100 mM citrate buffer, 30 min): 4616 ppm; PAA ([1]; 20 μg/mL enzyme, 250 mM triacetin, 100 mM H2O2, pH 6.6, 100 mM phosphate buffer, 30 min): 4488 ppm; PAA ([1]; 20 μg/mL enzyme, 250 mM triacetin, 100 mM H2O2, pH 7.2, 100 mM phosphate buffer, 30 min): 4812 ppm; TS [2]: 0.28 N/mgH
